Data published in the RNAGym collection of RNA variant scans (doi:10.1093/molbev/msab373).

B1: Azoarcus group I ribozyme (parent)
chain: GUGCCUUGCGCCGGGAAACCACGCAAGGGAUGGUGUCAAAUUCGGCGAAACCUAAGCGCCCGCCCGGGCGUAUGGCAACGCCGAGCCAAGCUUCGGCGCCUGCGCCGAUGAAGGUGUAGAGACUAGACGGCACCCACCUAAGGCAAACGCUAUGGUGAAGGCAUAGUCCAGGGAGUGGCGAAAGUCACACAAACCGG

Variants of: B1
Experiment: reverse-splicing fitness (ratio to wild type); higher = more active; in vitro selection; Mg2+ level not given
In short: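 An in vitro group I ribozyme library with randomized positions was T7-transcribed and gel-purified. In triplicate, 10 pmol RNA in EPPS pH 7.5 was reacted with 50 pmoles of a 30-nt RNA substrate for 1 h at 37 °C across several added MgCl2 levels (1–48 mM), then stopped with EDTA. Products were reverse transcribed from a substrate-complementary primer, PCR-amplified and sequenced (HiSeq 4000). Fitness is a variant's read proportion after selection over that before, normalised to wild type.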

Variant	reverse-splicing fitness
C82G A145U C150G C169U U176A	0.00876
C82G A120U C150U C169U U176C	0.00336
C82G A120U C150U C169U U176G	0.00193
C82G A120U C150U C169U U176A	0.00509
C82G A120U A145U C150U U176G	0.0126
C82G A145G C150A C169G U176A	0.017
C82G A145G C150A C169G U176G	0.00515
C82G A145G C150A C169G U176C	0.0286
C82G A120U C150A C169U U176C	0.00296
C82G A120U C150A C169U U176A	0.00396
C82G A120U C150A C169U U176G	0.00185
C82G C150G C169U U176A	0.00858
C82G C150G C169U U176C	0.0132
C82G C150G C169U U176G	0.00593
C82G A145C C150A C169A U176G	0.00515
C82G A145C C150A C169A U176A	0.0106
C82G A145C C150A C169A U176C	0.0049
C82G A120U C150U C169A U176G	0.00166
C82G A120U C150U C169A U176A	0.00417
C82G A120U C150U C169A U176C	0.00267
C82G A145G C150A C169A	0.0117
C82G A145G C150A C169U	0.0106
C82G A145G C150A C169G	0.00861
C82G C169U	0.017

Variant	reverse-splicing fitness
C82G C169G	0.0111
C82G C169A	0.00968
C82G A120U C150U C169G U176G	0.00205
C82G A120U C150U C169G U176A	0.00481
C82G A120U C150U C169G U176C	0.00376
C82G C150U C169G	0.0104
C82G C150U C169A	0.0106
C82G C150U C169U	0.0143
C82G A145G C150G C169A U176C	0.0144
C82G A145G C150G C169A U176G	0.00858
C82G A145G C150G C169A U176A	0.0146
C82G A120U C150G C169G U176A	0.00454
C82G A120U C150G C169G U176G	0.00218
C82G A120U C150G C169G U176C	0.00277
C82G A120U C150U	0.1
C82G A120U C150A	0.0159
C82G A120U C150G	0.0146
C82G C150A C169U U176C	0.0141
C82G C150A C169U U176A	0.0154
C82G C150A C169U U176G	0.0071
C82G A145C C150U C169G U176C	0.00942
C82G A145C C150U C169G U176A	0.019
C82G A145C C150U C169G U176G	0.00533
C82G A120U U176A	0.0729

Variant	reverse-splicing fitness
C82G A120U U176G	0.0201
C82G A120U U176C	0.113
C82G A145C C169A U176A	0.0121
C82G A145C C169A U176C	0.00541
C82G A145C C169A U176G	0.00481
C82G A145U C150U C169G	0.0103
C82G A145U C150U C169U	0.0123
C82G A145U C150U C169A	0.00964
C82G C150A C169A	0.00956
C82G C150A C169U	0.0101
C82G C150A C169G	0.00937
C82G A145C C150A C169A	0.00782
C82G A145C C150A C169G	0.00807
C82G A145C C150A C169U	0.00875
C82G C150A C169A U176G	0.00584
C82G C150A C169A U176C	0.0158
C82G C150A C169A U176A	0.0213
C82G C150G C169A	0.00919
C82G C150G C169G	0.00811
C82G C150G C169U	0.00971
C82G A145C C150G	0.0512
C82G A145C C150U	0.0965
C82G A145C C150A	0.0227
C82G A145U C169A	0.00844

Variant	reverse-splicing fitness
C82G A145U C169U	0.0147
C82G A145U C169G	0.0104
C82G A145G C150A U176A	0.0509
C82G A145G C150A U176G	0.0244
C82G A145G C150A U176C	0.0688
C82G A145C C150G C169G U176A	0.00973
C82G A145C C150G C169G U176G	0.0054
C82G A145C C150G C169G U176C	0.00656
C82G A145U C150A C169A U176C	0.0106
C82G A145U C150A C169A U176A	0.0121
C82G A145U C150A C169A U176G	0.00561
C82G A145U C150G U176G	0.0103
C82G A145U C150G U176A	0.0361
C82G A145U C150G U176C	0.0376
C82G A145C C169G U176A	0.0202
C82G A145C C169G U176G	0.0041
C82G A145C C169G U176C	0.011
C82G A145U C150G C169G U176C	0.00645
C82G A145U C150G C169G U176A	0.00882
C82G A145U C150G C169G U176G	0.00508
C82G A145U C169G U176G	0.00439
C82G A145U C169G U176C	0.0115
C82G A145U C169G U176A	0.00948
C82G A145U C169U U176A	0.0116

Variant	reverse-splicing fitness
C82G A145U C169U U176G	0.00368
C82G A145U C169U U176C	0.0136
C82G A145U C150G C169A U176A	0.0121
C82G A145U C150G C169A U176C	0.0105
C82G A145U C150G C169A U176G	0.00553
C82G A145G C150G C169G U176G	0.00613
C82G A145G C150G C169G U176C	0.0146
C82G A145G C150G C169G U176A	0.0113
C82G A120U C150A C169G U176G	0.00199
C82G A120U C150A C169G U176C	0.00368
C82G A120U C150A C169G U176A	0.00631
C82G A145U C169A U176A	0.00756
C82G A145U C169A U176C	0.00844
C82G A145U C169A U176G	0.00461
C82G C150U C169G U176C	0.0199
C82G C150U C169G U176G	0.00501
C82G C150U C169G U176A	0.0154
C82G A120U C169A U176G	0.000985
C82G A120U C169A U176A	0.00247
C82G A120U C169A U176C	0.00259
C82G C150G C169A U176A	0.0112
C82G C150G C169A U176G	0.00752
C82G C150G C169A U176C	0.00997
C82G A145G C150A C169A U176C	0.0238

Variant	reverse-splicing fitness
C82G A145G C150A C169A U176G	0.00731
C82G A145G C150A C169A U176A	0.0204
C82G A145C	0.45
C82G A145U	0.509
C82G A145G	0.458
C82G A145C C150U C169A U176G	0.00476
C82G A145C C150U C169A U176C	0.00579
C82G A145C C150U C169A U176A	0.0111
C82G A120U C150A U176G	0.00569
C82G A120U C150A U176A	0.0102
C82G A120U C150A U176C	0.0129
C82G A145C C169G	0.0115
C82G A145C C169A	0.00859
C82G A145C C169U	0.016
C82G A145C C150A C169G U176C	0.0105
C82G A145C C150A C169G U176G	0.00624
C82G A145C C150A C169G U176A	0.0223
C82G U176C	0.352
C82G U176G	0.14
C82G U176A	0.364
C82G A145C U176A	0.378
C82G A145C U176G	0.153
C82G A145C U176C	0.35
C82G A120U C169G U176A	0.00367

Variant	reverse-splicing fitness
C82G A120U C169G U176C	0.00322
C82G A120U C169G U176G	0.00147
C82G A145G C169G U176A	0.0176
C82G A145G C169G U176G	0.00454
C82G A145G C169G U176C	0.0279
C82G A120U C150A C169A	0.00401
C82G A120U C150A C169U	0.00426
C82G A120U C150A C169G	0.00295
C82G A145G C150G C169U U176G	0.0072
C82G A145G C150G C169U U176C	0.0131
C82G A145G C150G C169U U176A	0.0126
C82G A145C C169U U176C	0.0115
C82G A145C C169U U176A	0.0128
C82G A145C C169U U176G	0.00465
C82G A145G C169U	0.0164
C82G A145G C169G	0.0112
C82G A145G C169A	0.00951
C82G A145U C150A C169G U176G	0.00436
C82G A145U C150A C169G U176C	0.0129
C82G A145U C150A C169G U176A	0.0109
C82G A120U A145U C169A U176A	0.00245
C82G A120U A145U C169A U176C	0.00205
C82G A120U A145U C169A U176G	0.0013
